Reference: the supplement of paper PMC5998384

How the values were obtained:
[1] = system: HeLa Kyoto; experiment: solubility in G1/S (NP-40 vs SDS abundance) (log2 ratio); higher = more soluble; settings: cell cycle stage: G1/S
[2] = system: HeLa Kyoto; experiment: melting temperature (median over replicates), in situ; higher = more thermally stable
[3] = system: HeLa Kyoto; experiment: solubility change mitosis vs G1/S (difference of NP-40 vs SDS log2 ratios) (log2 ratio difference); higher = more soluble in mitosis
[4] = system: HeLa Kyoto; experiment: thermal stability score vs G1/S (z-score of summed log2 fold changes over temperatures); higher = more thermally stable than in G1/S
[5] = cell cycle stage: early G1 (4.5 h after nocodazole release)
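For melting temperature (median over replicates), in situ in this document: HeLa Kyoto cells synchronized by double thymidine or nocodazole block, proteins quantified by TMT10plex mass spectrometry, three independent biological replicates.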
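For solubility change mitosis vs G1/S (difference of NP-40 vs SDS log2 ratios) in this document: synchronized HeLa Kyoto cells (double thymidine block for G1/S, nocodazole release for mitosis), protein amounts in NP-40 versus SDS lysates quantified by mass spectrometry, three biological replicates.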
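For solubility in G1/S (NP-40 vs SDS abundance) in this document: HeLa Kyoto cells arrested at G1/S by double thymidine block, proteins quantified by TMT10plex mass spectrometry in mild NP-40 versus SDS extracts, three biological replicates.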
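For thermal stability score vs G1/S (z-score of summed log2 fold changes over temperatures) in this document: synchronized HeLa Kyoto cells, proteins quantified by TMT10plex mass spectrometry, three biological replicates, mitosis taken 0.5 h after nocodazole release, G1/S directly after double thymidine block.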

Row | Sequence | solubility in G1/S (log2) [1] | melting temperature ([2]; cell cycle stage: G1/S) [°C] | melting temperature ([2]; cell cycle stage: mitosis) [°C] | solubility change mitosis (log2) [3] | thermal stability score [4, 5] | thermal stability score ([4]; cell cycle stage: mitosis)
1 | MCDFTEDQTAEFKEAFQLFDRTGDGKILYSQCGDVMRALGQNPTNAEVLKVLGNPKSDEMNVKVLDFEHFLPMLQTVAKNKDQGTYEDYVEGLRVFDKEGNGTVMGAEIRHVLVTLGEKMTEEEVEMLVAGHEDSNGCINYEAFVRHILSG [MYL6] | -0.12 | 51.8 | 51.7 | 0.21 | -3.33 | -1.53
2 | MAAEIHSRPQSSRPVLLSKIEGHQDAVTAALLIPKEDGVITASEDRTIRVWLKRDSGQYWPSIYHTMASPCSAMAYHHDSRRIFVGQDNGAVMEFHVSEDFNKMNFIKTYPAHQNRVSAIIFSLATEWVISTGHDKCVSWMCTRSGNMLGRHFFTSWASCLQYDFDTQYAFVGDYSGQITLLKLEQNTCSVITTLKGHEGSVACLWWDPIQRLLFSGASDNSIIMWDIGGRKGRTLLLQGHHDKVQSLCYLQLTRQLVSCSSDGGIAVWNMDVSREEAPQWLESDSCQKCEQPFFWNIKQMWDTKTLGLRQHHCRKCGQAVCGKCSSKRSSYPVMGFEFQVRVCDSCYDSIKDEDRTSLATFHEGKHNISHMSMDIARGLMVTCGTDRIVKIWDMTPVVGCSLATGFSPH [WDFY1] | -0.607 | 54.2 | 54.5 | -0.0745 | 1.13 | -1.04
3 | MKRSGTLRLLSDLSAFGGAARLRELVAGDSAVRVRGSPDGRHLLLLRPPGAVAPQLLVASRGPGAELERAWPAGQPSPLDAFFLPWPARPALVLVWESGLAEVWGAGVGPGWRPLQSTELCPGGGARVVAVAALRGRLVWCEERQARAEGPSGSPAAAFSHCVCVRTLEPSGEASTSLGRTHVLLHHCPAFGLLASCRQLFLVPTATTWPGVAHVLLIWSPGKGKVMVAAPRLGLSYSKSLNPGRGDTWDFRTLLRGLPGLLSPREPLAVHTWAPTPQGLLLLDFGGTVSLLQSHGGTRAVGTLQEAPVGPWGSAALGTFQGTLACVLGSTLELLDMGSGQLLERKVLSTDRVHLLEPPAPGMEDEEELETRGNLRLLSALGLFCVGWEAPQGVELPSAKDLVFEEACGYYQRRSLRGAQLTPEELRHSSTFRAPQALASILQGHLPPSALLTMLRTELRDYRGLEQLKAQLVAGDDEEAGWTELAEQEVARLLRTELIGDQLAQLNTVFQALPTAAWGATLRALQLQLDGNGKLRSQAPPDVWKKVLGGITAGKEPPNGILPPFELLCQCLCQLEPRWLPPFVELAQQQGGPGWGAGGPGLPLYRRALAVLGEEGTRPEALELELLLSSGRPKAVLQAVGQLVQKEQWDRALDAGLALGPSSPLLRSEIFKLLLAEFAQHRRLDAHLPLLCRLCPPELAPAELLLLLRTYLPDEVGPPTPFPEPGAEPPLTVGLLKALLEQTGAQGWLSGPVLSPYEDILWDPSTPPPTPPRDL [HPS6] | 0.12 | 49.3 | 49.1 | -0.149 | 0.139 | 0.929
4 | MGVQGLWKLLECSGRQVSPEALEGKILAVDISIWLNQALKGVRDRHGNSIENPHLLTLFHRLCKLLFFRIRPIFVFDGDAPLLKKQTLVKRRQRKDLASSDSRKTTEKLLKTFLKRQAIKTAFRSKRDEALPSLTQVRRENDLYVLPPLQEEEKHSSEEEDEKEWQERMNQKQALQEEFFHNPQAIDIESEDFSSLPPEVKHEILTDMKEFTKRRRTLFEAMPEESDDFSQYQLKGLLKKNYLNQHIEHVQKEMNQQHSGHIRRQYEDEGGFLKEVESRRVVSEDTSHYILIKGIQAKTVAEVDSESLPSSSKMHGMSFDVKSSPCEKLKTEKEPDATPPSPRTLLAMQAALLGSSSEEELESENRRQARGRNAPAAVDEGSISPRTLSAIKRALDDDEDVKVCAGDDVQTGGPGAEEMRINSSTENSDEGLKVRDGKGIPFTATLASSSVNSAEEHVASTNEGREPTDSVPKEQMSLVHVGTEAFPISDESMIKDRKDRLPLESAVVRHSDAPGLPNGRELTPASPTCTNSVSKNETHAEVLEQQNELCPYESKFDSSLLSSDDETKCKPNSASEVIGPVSLQETSSIVSVPSEAVDNVENVVSFNAKEHENFLETIQEQQTTESAGQDLISIPKAVEPMEIDSEESESDGSFIEVQSVISDEELQAEFPETSKPPSEQGEEELVGTREGEAPAESESLLRDNSERDDVDGEPQEAEKDAEDSLHEWQDINLEELETLESNLLAQQNSLKAQKQQQERIAATVTGQMFLESQELLRLFGIPYIQAPMEAEAQCAILDLTDQTSGTITDDSDIWLFGARHVYRNFFNKNKFVEYYQYVDFHNQLGLDRNKLINLAYLLGSDYTEGIPTVGCVTAMEILNEFPGHGLEPLLKFSEWWHEAQKNPKIRPNPHDTKVKKKLRTLQLTPGFPNPAVAEAYLKPVVDDSKGSFLWGKPDLDKIREFCQRYFGWNRTKTDESLFPVLKQLDAQQTQLRIDSFFRLAQQEKEDAKRIKSQRLNRAVTCMLRKEKEAAASEIEAVSVAMEKEFELLDKAKGKTQKRGITNTLEESSSLKRKRLSDSKGKNTCGGFLGETCLSESSDGSSSEDAESSSLMNVQRRTAAKEPKTSASDSQNSVKEAPVKNGGATTSSSSDSDDDGGKEKMVLVTARSVFGKKRRKLRRARGRKRKT [ERCC5] | -0.112 | 50.7 | 51.4 | -0.0796 | 0.19 | 1.18
5 | MACAAVMIPGLLRCSVGAIRIEAASLRLTLSTLRHLTLTSIMKSKRKTDHMERTASVLRREIVSAAKVCGAASESPSVKSLRLLVADQDFSFKAGQWVDFFIPGVSVVGGFSICSSPRLLEQERVIELAVKYTNHPPALWVHNTCTLDCEVAVRVGGEFFFDPQPADASRNLVLIAGGVGINPLLSILRHAADLLREQANKRNGYEIGTIKLFYSAKNTSELLFKKNILDLVNEFPEKIACSLHVTKQTTQINAELKPYITEGRITEKEIRDHISKETLFYICGPPPMTDFFSKQLENNHVPKEHICFEKWW [OXNAD1] | -0.0285 | 53.9 | 54.7 | -0.0113 | -0.605 | -0.938
6 | MTFYLFGIRSFPKLWKSPYLGLGPGHSYVSLFLADRCGIRNQQRLFSLKTMSPQNTKATNLIAKARYLRKDEGSNKQVYSVPHFFLAGAAKERSQMNSQTEDHALAPVRNTIQLPTQPLNSEEWDKLKEDLKENTGKTSFESWIISQMAGCHSSIDVAKSLLAWVAAKNNGIVSYDLLVKYLYLCVFHMQTSEVIDVFEIMKARYKTLEPRGYSLLIRGLIHSDRWREALLLLEDIKKVITPSKKNYNDCIQGALLHQDVNTAWNLYQELLGHDIVPMLETLKAFFDFGKDIKDDNYSNKLLDILSYLRNNQLYPGESFAHSIKTWFESVPGKQWKGQFTTVRKSGQCSGCGKTIESIQLSPEEYECLKGKIMRDVIDGGDQYRKTTPQELKRFENFIKSRPPFDVVIDGLNVAKMFPKVRESQLLLNVVSQLAKRNLRLLVLGRKHMLRRSSQWSRDEMEEVQKQASCFFADDISEDDPFLLYATLHSGNHCRFITRDLMRDHKACLPDAKTQRLFFKWQQGHQLAIVNRFPGSKLTFQRILSYDTVVQTTGDSWHIPYDEDLVERCSCEVPTKWLCLHQKT [KIAA0391] | 0.189 | 47.8 | 48.4 | -0.118 | 0.296 | 1.88
7 | MVLAELYVSDREGSDATGDGTKEKPFKTGLKALMTVGKEPFPTIYVDSQKENERWNVISKSQLKNIKKMWHREQMKSESREKKEAEDSLRREKNLEEAKKITIKNDPSLPEPKCVKIGALEGYRGQRVKVFGWVHRLRRQGKNLMFLVLRDGTGYLQCVLADELCQCYNGVLLSTESSVAVYGMLNLTPKGKQAPGGHELSCDFWELIGLAPAGGADNLINEESDVDVQLNNRHMMIRGENMSKILKARSMVTRCFRDHFFDRGYYEVTPPTLVQTQVEGGATLFKLDYFGEEAFLTQSSQLYLETCLPALGDVFCIAQSYRAEQSRTRRHLAEYTHVEAECPFLTFDDLLNRLEDLVCDVVDRILKSPAGSIVHELNPNFQPPKRPFKRMNYSDAIVWLKEHDVKKEDGTFYEFGEDIPEAPERLMTDTINEPILLCRFPVEIKSFYMQRCPEDSRLTESVDVLMPNVGEIVGGSMRIFDSEEILAGYKREGIDPTPYYWYTDQRKYGTCPHGGYGLGLERFLTWILNRYHIRDVCLYPRFVQRCTP [NARS] | -0.0613 | 52.6 | 53.1 | -0.124 | 3.39 | 4
